Experimental data taken from PMC2783222 (2010).

Tests used:
ADAM11 = molecular target: T1, ADAM11 (Homo sapiens, UniProt O75078); assay: LGI1-AP fusion binding to transfected COS-7 cells
T1 chain: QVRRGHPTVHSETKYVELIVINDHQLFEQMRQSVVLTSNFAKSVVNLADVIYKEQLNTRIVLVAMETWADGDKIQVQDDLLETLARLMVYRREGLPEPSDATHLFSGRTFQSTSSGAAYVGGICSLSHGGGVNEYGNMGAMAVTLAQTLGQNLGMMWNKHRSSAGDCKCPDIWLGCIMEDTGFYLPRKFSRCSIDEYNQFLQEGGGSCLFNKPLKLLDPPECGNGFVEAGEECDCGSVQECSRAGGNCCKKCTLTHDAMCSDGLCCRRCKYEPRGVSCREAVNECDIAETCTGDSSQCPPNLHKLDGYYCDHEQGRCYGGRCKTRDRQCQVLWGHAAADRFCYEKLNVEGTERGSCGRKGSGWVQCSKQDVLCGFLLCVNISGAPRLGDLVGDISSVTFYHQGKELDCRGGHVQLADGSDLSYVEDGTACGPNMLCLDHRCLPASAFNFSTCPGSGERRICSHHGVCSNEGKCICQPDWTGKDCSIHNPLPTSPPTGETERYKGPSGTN

ADAM22 = molecular target: T2, ADAM22 (Homo sapiens, UniProt Q9P0K1); assay: LGI1-AP fusion binding to transfected COS-7 cells
T2 chain: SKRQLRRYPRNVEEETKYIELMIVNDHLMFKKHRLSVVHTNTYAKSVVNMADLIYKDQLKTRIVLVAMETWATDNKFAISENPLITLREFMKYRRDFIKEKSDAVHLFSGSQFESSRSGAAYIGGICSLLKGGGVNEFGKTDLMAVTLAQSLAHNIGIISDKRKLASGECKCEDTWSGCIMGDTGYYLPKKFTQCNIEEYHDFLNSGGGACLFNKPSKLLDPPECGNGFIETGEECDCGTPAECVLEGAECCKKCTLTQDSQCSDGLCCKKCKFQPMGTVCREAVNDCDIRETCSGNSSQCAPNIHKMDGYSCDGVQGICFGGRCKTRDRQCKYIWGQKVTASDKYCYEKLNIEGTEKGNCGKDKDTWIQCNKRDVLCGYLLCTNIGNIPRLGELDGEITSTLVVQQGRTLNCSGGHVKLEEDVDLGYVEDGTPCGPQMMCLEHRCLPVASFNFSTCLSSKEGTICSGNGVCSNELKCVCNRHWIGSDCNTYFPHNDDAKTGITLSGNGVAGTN

ADAM23 [1] = molecular target: T3, ADAM23 (Homo sapiens, UniProt O75077); assay: LGI1-AP fusion binding to transfected COS-7 cells
T3 chain: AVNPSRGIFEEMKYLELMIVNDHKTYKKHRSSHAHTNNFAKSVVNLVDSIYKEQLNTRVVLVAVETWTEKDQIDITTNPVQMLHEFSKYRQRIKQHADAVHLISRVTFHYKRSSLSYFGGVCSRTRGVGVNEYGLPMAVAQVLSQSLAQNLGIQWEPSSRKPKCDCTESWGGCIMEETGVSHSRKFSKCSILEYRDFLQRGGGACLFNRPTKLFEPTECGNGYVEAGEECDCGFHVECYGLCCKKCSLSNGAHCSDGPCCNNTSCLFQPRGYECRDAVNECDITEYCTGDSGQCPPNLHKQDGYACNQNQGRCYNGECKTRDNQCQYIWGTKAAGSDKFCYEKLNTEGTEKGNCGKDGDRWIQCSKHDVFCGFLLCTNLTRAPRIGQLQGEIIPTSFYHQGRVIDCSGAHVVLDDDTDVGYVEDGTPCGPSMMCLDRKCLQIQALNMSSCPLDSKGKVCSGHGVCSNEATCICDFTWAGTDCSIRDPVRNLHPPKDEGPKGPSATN

ADAM23 [2] = molecular target: T3, ADAM23; assay: LGI1-AP fusion binding to transfected COS-7 cells, Scatchard

B1: LGI1 (protein)
chain: KKPAKPKCPAVCTCTKDNALCENARSIPRTVPPDVISLSFVRSGFTEISEGSFLFTPSLQLLLFTSNSFDVISDDAFIGLPHLEYLFIENNNIKSISRHTFRGLKSLIHLSLANNNLQTLPKDIFKGLDSLTNVDLRGNSFNCDCKLKWLVEWLGHTNATVEDIYCEGPPEYKKRKINSLSSKDFDCIITEFAKSQDLPYQSLSIDTFSYLNDEYVVIAQPFTGKCIFLEWDHVEKTFRNYDNITGTSTVVCKPIVIETQLYVIVAQLFGGSHIYKRDSFANKFIKIQDIEILKIRKPNDIETFKIENNWYFVVADSSKAGFTTIYKWNGNGFYSHQSLHAWYRDTDVEYLEIVRTPQTLRTPHLILSSSSQRPVIYQWNKATQLFTNQTDIPNMEDVYAVKHFSVKGDVYICLTRFIGDSKVMKWGGSSFQDIQRMPSRGSMVFQPLQINNYQYAILGSDYSFTQVYNWDAEKAKFVKFQELNVQAPRSFTHVSINKRNFLFASSFKGNTQIYKHVIVDLSA
- Kd (ADAM11): 15 nM
- Kd (ADAM22): 15 nM
- Kd (ADAM23 [1]): 15 nM
- Kd (ADAM23 [2]): 10 nM
